This is an account of results in article doi:10.1101/2022.05.10.491349.

What all share (assay): SEC
(In gel filtration, larger molecules generally elute earlier.)

In assay [1] the target is SARS-CoV-2 Nsp15 A93S (SARS-CoV-2).
The target in assay [2] is SARS-CoV-2 Nsp15 D133Y (SARS-CoV-2).
The target of assay [3] is SARS-CoV-2 Nsp15 D220Y (SARS-CoV-2).
The target in assay [4] is SARS-CoV-2 Nsp15 G18E (SARS-CoV-2).
Assay [5] has as its target SARS-CoV-2 Nsp15 G18R (SARS-CoV-2).
Assay [6] addresses SARS-CoV-2 Nsp15 H235Y (SARS-CoV-2).
Assay [7] concerns the target SARS-CoV-2 Nsp15 K13N (SARS-CoV-2).
Assay [8] deals with SARS-CoV-2 Nsp15 K13R (SARS-CoV-2).
Assay [9] concerns the target SARS-CoV-2 Nsp15 K260R (SARS-CoV-2).
The target in assay [10] is SARS-CoV-2 Nsp15 K290N (SARS-CoV-2).
For assay [11], the target named is SARS-CoV-2 Nsp15 L163F (SARS-CoV-2).
Assay [12] addresses SARS-CoV-2 Nsp15 P206S (SARS-CoV-2).
Assay [13] concerns the target SARS-CoV-2 Nsp15 R207S (SARS-CoV-2).
The target in assay [14] is SARS-CoV-2 Nsp15 T34I (SARS-CoV-2).
In assay [15] the target is SARS-CoV-2 Nsp15 T115A (SARS-CoV-2).
Assay [16] has as its target SARS-CoV-2 Nsp15 V128F (SARS-CoV-2).
The target of assay [17] is SARS-CoV-2 Nsp15 W333C (SARS-CoV-2).

As to SARS-CoV-2 Nsp15 A93S (enzyme), the Hex/Mono Ratio in assay [1] is 0.49.

Turning to SARS-CoV-2 Nsp15 D133Y (enzyme), the Hex/Mono Ratio in [2] amounted to 0.48.

For the substance SARS-CoV-2 Nsp15 D220Y (enzyme), the Hex/Mono Ratio in assay [3] is 0.63.

As for SARS-CoV-2 Nsp15 G18E (enzyme), in [4], the Hex/Mono Ratio amounted to 0.56.

As for SARS-CoV-2 Nsp15 G18R (enzyme), in assay [5], the Hex/Mono Ratio is 0.88.

In the case of SARS-CoV-2 Nsp15 H235Y (enzyme), the Hex/Mono Ratio in assay [6] is 1.61.

Consider SARS-CoV-2 Nsp15 K13N (enzyme), for which the Hex/Mono Ratio in assay [7] turned out to be 0.63.

As to SARS-CoV-2 Nsp15 K13R (enzyme), the Hex/Mono Ratio in assay [8] is 1.18.

Consider SARS-CoV-2 Nsp15 K260R (enzyme), for which the Hex/Mono Ratio in [9] stood at 1.8.

Regarding SARS-CoV-2 Nsp15 K290N (enzyme), the Hex/Mono Ratio in assay [10] was 2.12.

Regarding SARS-CoV-2 Nsp15 L163F (enzyme), the Hex/Mono Ratio in [11] worked out at 0.23.

Turning to SARS-CoV-2 Nsp15 P206S (enzyme), the Hex/Mono Ratio in assay [12] was 2.49.

Consider SARS-CoV-2 Nsp15 R207S (enzyme), for which, in assay [13], the Hex/Mono Ratio stood at 0.14.

For SARS-CoV-2 Nsp15 T34I (enzyme), in [14], the Hex/Mono Ratio was 1.01.

For the substance SARS-CoV-2 Nsp15 T115A (enzyme), the Hex/Mono Ratio in assay [15] was found to be 0.55.

With SARS-CoV-2 Nsp15 V128F (enzyme), the Hex/Mono Ratio in assay [16] was 0.5.

With SARS-CoV-2 Nsp15 W333C (enzyme), in [17], the Hex/Mono Ratio amounted to 0.77.
